B1: MA1 monoclonal antibody (antibody, V domains shown)
VH: QVQLKESGPGLVAPSQSLSITCTVSGFSLSDYSISWIRQPPGKGLEWLGVIWGGGSTYYNSALKSRLSISKDNSKSQVFLKMNSLQTDDTAMYYCAKHPLYYGSNSDGYYAMDYWGQGTSVTVSS
VL: DIVMTQSHKFMSTSVGDRVSITCKASQDVGIVVAWYQQKPGQSPKLLIYWASTRHTGVPDRFTGSGSGTDFTLTISNVQSEDLADYFCQQYSSYPLTFGGGTKLEIK
notes: also called group I mAb; source: hybridoma cell line or transfection of linear expression cassettes
B2: MA5 monoclonal antibody (antibody, V domains shown)
VH: EVMLVESGGGLVKPGGSLKLSCAASGFMFSRYAMSWVRQTPEKRLEWVATISSGGSYTYYPDSVKGRFTMSRDNAKNTLYLQMSSLRSEDTAMYNCARHDGNYVDYAMDYWGQGTSVTVSS
VL: QIVLTQSPAIMSASLGEEITLTCSASSSVSHMHWYQQKSGTSPKLLIYSTFNLASGVPSRFSGSGSGTFYSLTISSVEAEDAADYYCHQWSSWTFGGGTKLEIK
notes: also called group IV mAb; source: hybridoma cell line or transfection of linear expression cassettes

Target: recombinant SARS-CoV-2 RBD-Fc (Severe acute respiratory syndrome …, UniProt P0DTC2)
Assay: ELISA; natural RBD-Fc immobilised on ELISA plates

| Binder | binding result |
| --- | --- |
| B1 | binds |
| B2 | binds |
